Laboratory results taken from the supplement of paper PMC10266784.

B1: library; numbered along this chain (parent)
chain: MAAAAAAAAEQQSSNGPVKKSMREKAVERRSVNKEHNSNFKAGYIPIDEDRLHKTGLRGRKGNLAICVIILLFILAVINLIITLVIWAVIRIGPNGCDSMEFHESGLLRFKQVSDMGVIHPLYKSTVGGRRNENLVITGNNQPIVFQQGTTKLSVENNKTSITSDIGMQFFDPRTQNILFSTDYETHEFHLPSGVKSLNVQKASTERITSNATSDLNIKVDGRAIVRGNEGVFIMGKTIEFHMGGNMELKAENSIILNGSVMVSTTRLPSSSSGDQLGSGDWVRYKLCMCADGTLFKVQVTSQNMGCQISDNPCGNTH

Variants of: B1
Assay: SGCB cell-surface expression functional score (HA stain, bin4 vs bin1, normalised to synonymous) (log10 ratio); higher = more cell-surface SGCB (functional)
Protocol: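 Deep mutational scan of full-length human SGCB (YFP-SGCB-HA, NNN codon sublibraries A-F) delivered by lentivirus at low MOI into ADG-HEK293 cells stably expressing SGCA, SGCD and SGCG. YFP-positive cells were stained for surface HA on unpermeabilized cells and FACS-sorted into bins. The functional score is log10(frequency in high bin 4 / frequency in low bin 1), normalised per chunk so that synonymous variants have mean 0 and SD 0.5. Scores are the median over codons and over duplicate biological replicates; scores below -0.5 are called non-functional. Scale: negative means deleterious.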

SGCB cell-surface expression functional score (log10), by site and new letter:
E156: F -0.1, C 0.01, N -0.23, D -0.04, T -0.18, Q 0.19, M -0.14, L -0.43, P -0.84, S -0.22, G -0.23, R -0.38, A -0.03, H -0.39, K -0.6, W -0.4, Y -0.38, V -0.3, I -0.63
L153: E -0.79, M 0.18, A -1.08, S -1.03, F -0.26, V -0.65, N -1.69, Q -1.65, C -0.34, P -1.07, H -1.03, G -0.65, T -0.99, R -1.23, W -1.15, K -1.12, Y -1.24, I -0.17, D -1.44
I166: T 0.36, R -0.29, E 0.76, W -2.63, L -0.38, C 0.54, V 0.13, S -0.76, H -0.1, Y 0.18, K -0.2, N -0.78, D -1.32, M -0.16, P -1.11, G -0.41, A -0.49, Q -0.21, F 0.57
I162: M 0.23, Y -1.43, E -0.89, D -1.31, Q -0.98, R -1.34, W 0.05, A -0.52, P -1.25, V -0.49, L -0.6, S -1.09, C -1.23, G -1.34, T -1.07, K -1.11, N -0.83, F -0.81, H -1.02
V155: I 0.29, C -0.76, W -1.19, T -1.02, Y -1.9, S -1.06, Q -1.48, K -1.53, G -1.18, D -0.85, L 0.18, E -0.74, R -1.45, H -1.51, N -1.38, M 0.02, P -1.4, A -0.56, F -0.64
S154: T -0.08, Y -0.16, C 0.11, L -0.22, F -0.49, W -0.21, H -0.24, A 0.26, D 0.2, E -0.33, R 0.01, V 0.16, G -0.24, Q -0.7, K 0.55, P -1.03, N -0.3, I 0, M 0.54
G167: H -0.66, K -0.34, L -0.9, A -0.48, I -2.1, D -1.19, C -2.06, P -1.01, V -0.99, F -1.3, T -1.32, E -1.93, Y -1.42, S -1.64, W -1.16, M -1.61, N -1.11, Q -0.39, R -1.14
K159: L 0.31, C -0.02, Y -0.79, N -0.03, A -0.02, R -0.48, S -0.32, D -1.02, P -1.13, H -0.05, Q -0.09, V -0.09, W -0.05, I 0, T -0.28, M -0.28, G 0.43, F -0.25, E -0.7
S161: L 0.12, Q 0.14, P -1.15, D -0.8, W -0.98, H -0.26, Y -0.18, K -0.33, M -0.34, R 0.02, G 0.01, A 0.29, V -0.12, F -0.36, T 0.3, C -0.11, I -0.06, N -0.84, E 0.42
M168: N -2.1, G -1.9, E -0.66, C -0.84, R -0.79, W -2.06, V -0.11, F -0.59, Y -1.79, P -0.24, L 0.01, T -1.24, H -1.85, Q -1.74, S -1.21, I -0.24, K -0.76, D -1.62, A -1.55
K152: S -0.23, V 0.52, Y -0.59, W 0.3, T -0.04
T163: F -0.27, I 0.32, H -0.2, D -1.08, C -0.72, L -0.56, Y 0.58, G -1.5, Q 0.21, E -0.38, S -1.01, K -0.3, A -0.32, V 0.25, R -0.05, P -1.3, M -1.06
F170: G -0.91, Q -0.12, K -0.63, E -2.21, A -0.27, L 0.11, P -1.16, N -1.47, C -0.28, I 0.36, D -1.87
D165: E 0.02, N -0.35, S -0.01, Y -0.38, H 0.61, A 0.17, G -0.11, Q -1.09, R 0.2, F 0.07, I 0.19, T 0.73, V 0.5, K -0.75, L -0.58, P 0.58
T160: V 0.03, M -1.02, D -1.29, H -0.01, A -0.29, N -0.8, S -0.5, I 0.64, C -0.14, R -1.29, Q -1.26, K -2.03, P -1.28, W -0.95, G -1.29, F -0.15, E -1.3, Y -1.13, L 0.17
N157: G 0.52, H 0.06, A 0.08, S -0.08, E -0.18, P 0.01, K -0.19, F -0.21, Y 0.04, L 0.19, C 0.02, Q 0.38, I -0.06, T -0.05, W 0.34, D -0.02, R 0.01, M 0.06, V 0.48
Q169: G -1.16, K 0, F -1.89, L -0.69, H -0.86, E 0.46, Y -0.36, M -1.88, C -1.24, S 0.27, I 0.44, W -1.48, D -0.37, R 0.09, P -1.46, N -1.92, V -0.23, T -0.04, A -1.13
N158: V -0.44, S 0.15, Y -0.05, P -0.76, M -0.12, D 0.02, T 0.18, G -0.06, W -0.42, Q 0.06, K -0.26, L -0.11, R -0.6, H -0.2, E -0.02, C 0, A -0.1, F -0.06, I -0.21
S164: T -0.69, V -0.34, E -0.83, R -0.91, F -1.08, K -0.97, N -0.99, M -2.05, W -2.58, H -1.56, L -1.91, A -0.39, G -0.13, Y -1.05, C -0.79, I -1.26, Q -0.96, P -1.87, D 0.11
